Experiments:
human LILRB4 (human) [1] = molecular target: human LILRB4 (human) (UniProt Q8NHJ6); assay: competitive FACS; competition with IO-202
human LILRB4 (human) [2] = molecular target: human LILRB4 (human) (UniProt Q8NHJ6); assay: FACS
hLILRB3 (human) = hLILRB3 (human) (UniProt O75022); assay: FACS; isotype control
[3] = molecular target: human LILRA6 protein (human) (UniProt Q6PI73); assay: ELISA, LILRA6 protein
human LILRB4 (human) [4] = molecular target: human LILRB4 (human) (UniProt Q8NHJ6); assay: cell-based or functional assay

Substance IO-202 has an IC50 (human LILRB4 (human) [1]) of 3.74 nM and an EC50 (human LILRB4 (human) [2]) of 1.31 nM.

With Isotype the EC50 (hLILRB3 (human)) was 42 nM.

With Isotype (hIgG1) (antibody) the ELISA(OD450) [3] was 0.152 OD450, the ADCP (%) at 133.3 nM, macrophages and MV-4-11 cells (human LILRB4 (human) [4]) was 2.92% and the FcγR stimulation (TNF-α, pg/mL) (human LILRB4 (human) [4]) was 31.6 pg/mL. For the same substance, the Fold change (Compared to isotype) (human LILRB4 (human) [4]) was 1 fold and the Max cell cytotoxicity (%), ADCC on THP-1 cells (human LILRB4 (human) [4]) was 2.75%.

— patent US20250361295A1
